Laboratory results: PMC6862464, “Structural Insights into AQP2 Targeting to Multivesicular Bodies” (International Journal of Molecular Sciences, 2019)
Where a chain is given by its changes, count along the chain named.

What was measured:
Test in all cases: other fluorescence titration; Alexa 488-labeled, dephosphorylated AQP2 (around 1 uM) in the cuvette, titrated with unlabeled LIP5; total fluorescence; 20 mM Tris-HCl pH 8, 300 mM NaCl, 0.2% OGNG; triplicate titrations
Details in all cases: both partners purified
[1] = biological target: T1, full-length human LIP5 M43A (human, UniProt Q9NP79 1-307, M43A)
T1 construct: LIP5, human, full length, point mutant; spacer before the TEV site and His tag, as in m2; Mutant of m2; dimer as said of full-length LIP5 (cited); source: E. coli BL21*(DE3), purified (HisTrap, SEC)
T1 sequence: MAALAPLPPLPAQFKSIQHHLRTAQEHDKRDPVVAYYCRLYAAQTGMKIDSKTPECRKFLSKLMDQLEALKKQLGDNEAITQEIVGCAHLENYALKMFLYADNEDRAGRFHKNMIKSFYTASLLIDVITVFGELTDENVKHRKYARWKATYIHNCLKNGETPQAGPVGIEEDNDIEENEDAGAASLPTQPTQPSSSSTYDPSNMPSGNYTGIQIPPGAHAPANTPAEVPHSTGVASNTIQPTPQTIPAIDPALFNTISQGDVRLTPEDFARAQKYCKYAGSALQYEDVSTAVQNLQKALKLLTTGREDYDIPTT

[2] = biological target: T2, full-length human LIP5 E68A (human, UniProt Q9NP79 1-307, E68A)
T2 construct: LIP5, human, full length, point mutant; spacer before the TEV site and His tag, as in m2; Mutant of m2; dimer as said of full-length LIP5 (cited); source: E. coli BL21*(DE3), purified (HisTrap, SEC)
T2 sequence: T1 sequence with A43M, E68A

[3] = biological target: T3, full-length human LIP5 D65A (human, UniProt Q9NP79 1-307, D65A)
T3 construct: LIP5, human, full length, point mutant; spacer before the TEV site and His tag, as in m2; Mutant of m2; dimer as said of full-length LIP5 (cited); source: E. coli BL21*(DE3), purified (HisTrap, SEC)
T3 sequence: T1 sequence with A43M, D65A

[4] = biological target: T4, full-length human lysosomal trafficking regulator-interacting protein 5 (FL-LIP5) (human, UniProt Q9NP79 1-307)
T4 construct: spacer between the last LIP5 residue and the TEV protease site that precedes the His tag; same tag, TEV site and linker as ND-LIP5; No TEV cleavage is described; also called full-length LIP5; wild-type LIP5; source: E. coli BL21*(DE3), purified (HisTrap, SEC)
T4 sequence: T1 sequence with A43M

[5] = biological target: T5, full-length human LIP5 K71A (human, UniProt Q9NP79 1-307, K71A)
T5 construct: LIP5, human, full length, point mutant; spacer before the TEV site and His tag, as in m2; Mutant of m2; dimer as said of full-length LIP5 (cited); source: E. coli BL21*(DE3), purified (HisTrap, SEC)
T5 sequence: T1 sequence with A43M, K71A

[6] = biological target: T6, full-length human LIP5 L67A (human, UniProt Q9NP79 1-307, L67A)
T6 construct: LIP5, human, full length, point mutant; spacer before the TEV site and His tag, as in m2; Mutant of m2; dimer as said of full-length LIP5 (cited); source: E. coli BL21*(DE3), purified (HisTrap, SEC)
T6 sequence: T1 sequence with A43M, L67A

Kd [1]: 457 nM
Kd [2]: 243 nM
Kd [3]: 149 nM
Kd [4]: 237 nM
Kd [5]: 137 nM
Kd [6]: 298 nM
B1: human aquaporin 2 (AQP2), wild-type (natural protein, UniProt P41181 1-271, looked up)
chain: MWELRSIAFSRAVFAEFLATLLFVFFGLGSALNWPQALPSVLQIAMAFGLGIGTLVQALGHISGAHINPAVTVACLVGCHVSVLRAAFYVAAQLLGAVAGAALLHEITPADIRGDLAVNALSNSTTAGQAVTVELFLTLQLVLCIFASTDERRGENPGTPALSIGFSVALGHLLGIHYTGCSMNPARSLAPAVVTGKFDDHWVFWIGPLVGAILGSLLYNYVLFPPAKSLSERLAVLKGLEPDTDWEEREVRRRQSVELHSPQSLPRGTKA
modifications: cysteine residues labeled with C5 maleimide Alexa 488; dephosphorylated with alkaline phosphatase before labeling
notes: concentrations and molar ratios seem to count monomers; His-tag is called uncleavable; also called WT; labeled AQP2; source: Pichia pastoris, purified (HisTrap, SEC) in OGNG; not shown: His-tag, N-terminal, kept
